The values that follow come from paper PMC5647379, “Calmodulin confers calcium sensitivity to the stability of the distal intracellular assembly domain of Kv7.2 channels” (Scientific Reports, 2017).

Assay [1] has as its target T1, dansylated calmodulin (D-CaM, 5-(dimethylamino)naphtalene-1-sulfonyl-calmodulin) (rat, UniProt P0DP29 1-149, dansyl (5-(dimethylamino)naphtalene-1-sulfonyl) label, residue not stated). As to the kind of experiment: other fluorescence titration; as a2 but with an excess of free Ca2+ (3.9 µM; 9.63 mM Ca2+ added to the Fluorescence buffer); apparent affinity (EC50). Particulars: both partners purified.

Assay [2] has as its target T1, dansylated calmodulin (D-CaM, …). Nature of the assay: other fluorescence titration; D-CaM 12.5 nM in the cuvette, increasing concentrations of GST-fusion protein; no Ca2+ (EGTA 10 mM); Tris-HCl 25 mM pH 7.4, KCl 120 mM, NaCl 5 mM, MgCl2 2 mM; 25 °C; apparent affinity (EC50 of a Hill fit to the fluorescence enhancement). The following applies: both partners purified.

B1: GST-Kv7.2 AB (helices AB fused to GST) (domain or fragment)
chain: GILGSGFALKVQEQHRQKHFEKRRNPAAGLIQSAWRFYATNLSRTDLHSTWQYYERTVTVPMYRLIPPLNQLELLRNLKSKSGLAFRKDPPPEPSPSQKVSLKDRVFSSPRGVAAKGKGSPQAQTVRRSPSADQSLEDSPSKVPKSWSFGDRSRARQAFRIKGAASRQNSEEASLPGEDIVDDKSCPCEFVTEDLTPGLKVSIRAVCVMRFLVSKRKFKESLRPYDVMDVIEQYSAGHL
Consider B1, for which the results for the EC50 in assay [1] and in assay [2] were 27.1 nM and 11 nM, respectively.
